Among the data in PMC10663500 are Kd, koff and kon values, retold here.

The target of this assay is toripalimab Fab, wild type. As to the kind of experiment: SPR; Carterra LSA; Fab from the ammonium sulfate precipitate of the culture supernatant immobilised on a NiHC200M chip; hPD-1 (1-1024 nM) or mPD-1-Fc (4-1024 nM) as analyte, fourfold dilution series, no regeneration; HBS-EP pH 7.4, 25 °C; medians over the spots of a construct, KD = koff/kon. A general note: SPR reads the build-up and loss of mass on a sensor chip optically.
Sequence of toripalimab Fab, wild type (heavy, as listed by the source, chain 1 of 2): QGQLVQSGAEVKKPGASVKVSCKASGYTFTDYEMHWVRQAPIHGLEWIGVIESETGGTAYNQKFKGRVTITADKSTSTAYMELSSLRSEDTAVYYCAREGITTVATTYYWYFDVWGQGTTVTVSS
Sequence of toripalimab Fab, wild type (light, as listed by the source, chain 2 of 2): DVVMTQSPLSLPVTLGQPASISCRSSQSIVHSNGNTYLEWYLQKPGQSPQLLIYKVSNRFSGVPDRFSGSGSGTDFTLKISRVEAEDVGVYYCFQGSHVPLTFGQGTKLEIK

Sequence of mouse programmed cell death protein 1 Fc fusion protein (mPD-1-Fc), mPD-1 C60S (aa 25-167) (Q02242 25-167, stated change not applied): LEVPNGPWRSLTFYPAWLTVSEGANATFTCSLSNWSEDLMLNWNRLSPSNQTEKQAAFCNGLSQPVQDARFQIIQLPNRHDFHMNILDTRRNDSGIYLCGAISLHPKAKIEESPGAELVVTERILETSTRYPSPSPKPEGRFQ

In the case of “mouse programmed cell death protein 1 Fc fusion protein (mPD-1-Fc), mPD-1 C60S (aa 25-167) (from UniProt Q02242 25-167)”, the Kd (commonly the concentration at which binding is half-saturated) stood at 136 nM; the koff – broadly, a measure of how fast the partners let go of each other – was 0.00548 s⁻¹; the kon (usually a measure of how fast the partners come together) was found to be 40300 M⁻¹ s⁻¹.
